According to ChEMBL document CHEMBL4680222, “Sensitive fluorogenic substrates for sirtuin deacylase inhibitor discovery” (Eur J Med Chem, 2020):

Assays:
[1] = test system: Cc1cc(=O)oc2cc(NC(=O)[C@H](CCCCNC(=O)CCC(=O)O)NC(=O)OCc3ccccc3)ccc12; assay: (§1) Substrate activity at human N-terminal His-tagged SIRT5 (34 to 302 residues) expressed in Escherichia coli assessed as ratio of Kcat to Km measured after 1 hr in presence of NAD+ and trypsin by Michaelis-Menten kinetic model based fluorescence assay
[2] = test system: CC(=O)N[C@@H](CO)C(=O)N[C@@H](CC(C)C)C(=O)NCC(=O)N[C@@H](CCCCNC(=O)CCC(=O)O)C(=O)Nc1ccc2c(C)cc(=O)oc2c1; assay: as §1
[3] = test system: CC(=O)N[C@@H](Cc1cnc[nH]1)C(=O)N[C@@H](Cc1ccccc1)C(=O)N[C@@H](CO)C(=O)N[C@@H](CCCCNC(=O)CCC(=O)O)C(=O)Nc1ccc2c(C)cc(=O)oc2c1; assay: as §1
[4] = test system: CC(=O)N[C@@H](CC(C)C)C(=O)NCC(=O)N[C@@H](CO)C(=O)N[C@@H](CCCCNC(=O)CCC(=O)O)C(=O)Nc1ccc2c(C)cc(=O)oc2c1; assay: as §1
[5] = test system: Cc1cc(=O)oc2cc(NC(=O)[C@H](CCCCNC(=O)CCC(=O)O)NC(=O)OCc3ccccc3)ccc12; assay: (§2) Substrate activity at human N-terminal His-tagged SIRT5 (34 to 302 residues) expressed in Escherichia coli assessed as Km measured after 1 hr in presence of NAD+ and trypsin by Michaelis-Menten kinetic model based fluorescence assay
[6] = test system: CC(=O)N[C@@H](CO)C(=O)N[C@@H](CC(C)C)C(=O)NCC(=O)N[C@@H](CCCCNC(=O)CCC(=O)O)C(=O)Nc1ccc2c(C)cc(=O)oc2c1; assay: as §2
[7] = test system: CC(=O)N[C@@H](Cc1cnc[nH]1)C(=O)N[C@@H](Cc1ccccc1)C(=O)N[C@@H](CO)C(=O)N[C@@H](CCCCNC(=O)CCC(=O)O)C(=O)Nc1ccc2c(C)cc(=O)oc2c1; assay: as §2
[8] = test system: CC(=O)N[C@@H](CC(C)C)C(=O)NCC(=O)N[C@@H](CO)C(=O)N[C@@H](CCCCNC(=O)CCC(=O)O)C(=O)Nc1ccc2c(C)cc(=O)oc2c1; assay: as §2
[9] = test system: Cc1cc(=O)oc2cc(NC(=O)[C@H](CCCCNC(=O)CCC(=O)O)NC(=O)OCc3ccccc3)ccc12; assay: (§3) Substrate activity at human N-terminal His-tagged SIRT5 (34 to 302 residues) expressed in Escherichia coli assessed as Vmax measured after 1 hr in presence of NAD+ and trypsin by Michaelis-Menten kinetic model based fluorescence assay
[10] = test system: CC(=O)N[C@@H](CO)C(=O)N[C@@H](CC(C)C)C(=O)NCC(=O)N[C@@H](CCCCNC(=O)CCC(=O)O)C(=O)Nc1ccc2c(C)cc(=O)oc2c1; assay: as §3
[11] = test system: CC(=O)N[C@@H](Cc1cnc[nH]1)C(=O)N[C@@H](Cc1ccccc1)C(=O)N[C@@H](CO)C(=O)N[C@@H](CCCCNC(=O)CCC(=O)O)C(=O)Nc1ccc2c(C)cc(=O)oc2c1; assay: as §3
[12] = test system: CC(=O)N[C@@H](CC(C)C)C(=O)NCC(=O)N[C@@H](CO)C(=O)N[C@@H](CCCCNC(=O)CCC(=O)O)C(=O)Nc1ccc2c(C)cc(=O)oc2c1; assay: as §3
[13] = test system: Cc1cc(=O)oc2cc(NC(=O)[C@H](CCCCNC(=O)CCC(=O)O)NC(=O)OCc3ccccc3)ccc12; assay: (§4) Substrate activity at human N-terminal His-tagged SIRT5 (34 to 302 residues) expressed in Escherichia coli assessed as Kcat measured after 1 hr in presence of NAD+ and trypsin by Michaelis-Menten kinetic model based fluorescence assay
[14] = test system: CC(=O)N[C@@H](CO)C(=O)N[C@@H](CC(C)C)C(=O)NCC(=O)N[C@@H](CCCCNC(=O)CCC(=O)O)C(=O)Nc1ccc2c(C)cc(=O)oc2c1; assay: as §4
[15] = test system: CC(=O)N[C@@H](Cc1cnc[nH]1)C(=O)N[C@@H](Cc1ccccc1)C(=O)N[C@@H](CO)C(=O)N[C@@H](CCCCNC(=O)CCC(=O)O)C(=O)Nc1ccc2c(C)cc(=O)oc2c1; assay: as §4
[16] = test system: CC(=O)N[C@@H](CC(C)C)C(=O)NCC(=O)N[C@@H](CO)C(=O)N[C@@H](CCCCNC(=O)CCC(=O)O)C(=O)Nc1ccc2c(C)cc(=O)oc2c1; assay: as §4

Sequence of NAD-dependent protein deacylase sirtuin-5, mitochondrial (Homo sapiens), Q9NXA8 (Q9NXA8 whole entry): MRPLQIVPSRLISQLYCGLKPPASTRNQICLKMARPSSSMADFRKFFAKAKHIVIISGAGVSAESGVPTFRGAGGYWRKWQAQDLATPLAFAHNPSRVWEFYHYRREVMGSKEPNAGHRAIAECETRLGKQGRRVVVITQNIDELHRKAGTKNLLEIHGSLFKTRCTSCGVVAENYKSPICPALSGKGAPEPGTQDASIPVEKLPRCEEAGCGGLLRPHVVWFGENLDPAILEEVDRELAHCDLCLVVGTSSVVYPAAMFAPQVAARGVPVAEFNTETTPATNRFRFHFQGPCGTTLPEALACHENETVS

Question: What does the source list for “NAD-dependent protein deacylase sirtuin-5, mitochondrial (Homo sapiens), Q9NXA8”?
Answer: kcat/Km [1]: 160 M⁻¹ s⁻¹; kcat/Km [2]: 1440 M⁻¹ s⁻¹; kcat/Km [3]: 815 M⁻¹ s⁻¹; kcat/Km [4]: 817 M⁻¹ s⁻¹; Km [5]: 13.3 µM; Km [6]: 31.6 µM; Km [7]: 57.5 µM; Km [8]: 47.6 µM; Vmax [9]: 21.7 nM/min; Vmax [10]: 136 nM/min; Vmax [11]: 141 nM/min; Vmax [12]: 116 nM/min; kcat [13]: 2.6 10^-3/s; kcat [14]: 45.5 10^-3/s; kcat [15]: 46.9 10^-3/s; kcat [16]: 38.8 10^-3/s
